We go through 140 substances from the supplement of paper PMC12042874.

± gives the uncertainty stated by the source.

This series is described as follows: amyloid nucleation score (Sup35N fusion, yeast selection) (log enrichment); library NNK1; higher = more nucleation; inactive = no reads after selection. Put shortly:
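On medium lacking adenine and uracil, psi-negative yeast expressing peptides of 20 random codons fused to Sup35N were grown 7 days at 30°C after a 24-hour induction with 100 μM copper sulfate. Illumina sequencing of input and output plasmid inserts gave the reads, and sequences under 100 input reads were excluded. The nucleation score is the DiMSum log enrichment of output over input reads, centred on the mode score of non-aggregating sequences.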

Substance CCQRYCCTSGLANNWNRVYH yielded an amyloid nucleation score of 0.812 ± 0.75.

In turn, LAMLSNGSFNGLFLLWSRCH had an amyloid nucleation score of 0.525 ± 0.35.

As for FVMLGWFSRNIGLYEVFVFT, the amyloid nucleation score came to 0.502 ± 0.36.

For DSGVAVQMFEQTTGDPGIEG, the amyloid nucleation score was -0.883 ± 0.76.

Substance DFTVA had an amyloid nucleation score of 0.596 ± 0.78.

GKSNLARHAPNLEVTMRGTE registered an amyloid nucleation score of 1.27 ± 0.42.

In the case of FHHMVLE, the amyloid nucleation score is -0.783 ± 0.54.

In turn, YNGGGSYNWVWMGNSPVKTR returned an amyloid nucleation score of 0.969 ± 0.61.

Turning to IATNRGMCLGLRVSGLDMAR, the amyloid nucleation score was 1.13 ± 0.49.

The substance VTHVFYAVLGGMRMGLNFPT showed an amyloid nucleation score of -0.192 ± 0.4.

Substance RLCPSCLVKWMTLWFVWIVR showed an amyloid nucleation score of 0.769 ± 0.41.

HLLSGMITCDDLHGCGLEGI registered an amyloid nucleation score of 0.344 ± 0.35.

For TKTSTSFGRVKPVN, the amyloid nucleation score stood at 0.793 ± 0.85.

The substance IRPNMRAVKIEVQDVGSQCV yielded an amyloid nucleation score of 0.428 ± 0.6.

Turning to SSCNRRSHKP, the amyloid nucleation score is -0.471 ± 0.54.

TSTPNVWRKR: the amyloid nucleation score result was “inactive”.

As to LHSNGSD, the amyloid nucleation score entry is “inactive”.

For the substance VLKHFGFCMLPNISAY, the amyloid nucleation score amounted to 0.386 ± 0.4.

For the substance VSYTVSFSFFLFLFNWHSYV, the amyloid nucleation score turned out to be 0.147 ± 0.65.

KLGTPLRQSDVS registered an amyloid nucleation score of -0.461 ± 0.59.

IGRRDWH returned an amyloid nucleation score of 0.925 ± 0.49.

Substance RVGEKSVEWPAFLRYLMKWF registered an amyloid nucleation score of -0.008 ± 0.5.

RVNYIHD registered an amyloid nucleation score of -0.057 ± 0.46.

In turn, RRHAHLWLYLGNLGCWLEEV yielded an amyloid nucleation score of -0.139 ± 0.38.

GKLPYVFRDCNKTVLVMALF gave an amyloid nucleation score of 0.947 ± 0.73.

On to GSDCSKAAFDPPFRSYDNAT, for which the amyloid nucleation score was determined as 0.429 ± 0.33.

Turning to LVYPYESLFHFESGASH, the amyloid nucleation score was determined as 0.32 ± 0.21.

For the substance CNTLDLMAFNSLYLSPVSTC, the amyloid nucleation score entry is “inactive”.

MDSTHSIPCHLNVFL yielded an amyloid nucleation score of -0.475 ± 0.58.

Take NCNKSFNLLECGSFGTVGPM: the amyloid nucleation score was -0.324 ± 0.6.

In the case of LGVAFQRYVCICEVVSLSRG, the amyloid nucleation score stood at 0.523 ± 0.32.

As to NDDSDSVVFSTNGGIYFMHG, the amyloid nucleation score was -0.177 ± 0.53.

Consider SARYTLKPQPWVHHLLK, for which the amyloid nucleation score was 0.523 ± 0.9.

Substance FYLGPCYAVIWVNFQLPLGV yielded an amyloid nucleation score of 0.596 ± 0.33.

Substance KCLTFHVSNVFITANPLCLL registered an amyloid nucleation score of 5.936 ± 0.054.

As for NYVGWLLCASILVRYNGTLE, the amyloid nucleation score was 1.26 ± 0.77.

In turn, ACLCVIRMFHYNGLRH showed an amyloid nucleation score of 0.576 ± 0.76.

RAMTVLLGGNFQMIIKTFEL came in with an amyloid nucleation score of 3.09 ± 0.074.

DNVCRYGRKCWKRERESGQT showed an amyloid nucleation score of 0.105 ± 0.42.

As to LVNDPVFMGTWILSARICNV, the amyloid nucleation score worked out at 0.323 ± 0.36.

SYLMQSFDKLCAA displayed an amyloid nucleation score of -0.033 ± 1.1.

In the case of ARHPECQSCSWRYCLYVVHC, the amyloid nucleation score entry is “inactive”.

For the substance LTRKTVRKTSKNRIGLHHQT, the amyloid nucleation score entry was “inactive”.

WYIVPITVNFQG came in with an amyloid nucleation score of 6.54 ± 0.049.

Turning to SYNFLRPYLLFSHPFSYDSS, the amyloid nucleation score came to 0.21 ± 0.6.

FLCLLMFPIRHRL had an amyloid nucleation score of 0.004 ± 0.33.

With SLNSTFFCIEISVDDIEVLQ, the amyloid nucleation score is -0.609 ± 0.52.

Substance HDPDPVDYGCGWVSVSCGVA gave an amyloid nucleation score of 0.819 ± 0.82.

As to CTYTAPYAPSLMPGPRVGYI, the amyloid nucleation score result was “inactive”.

VALDMYCFQYFQTNYYS: the amyloid nucleation score came to 8.411 ± 0.045.

As for TFVCIMFLDSSFSSENYGRL, the amyloid nucleation score came to 1.7 ± 0.16.

Regarding ADRWVLSFMEPCAT, the amyloid nucleation score entry was “inactive”.

As for FVGRSVCAKMTPHRLTAIGP, the amyloid nucleation score was -0.082 ± 0.67.

In turn, GPPSWSELDFHYCVGGWFYP showed an amyloid nucleation score of -0.456 ± 0.56.

For the substance CRASFACERDNIS, the amyloid nucleation score worked out at 0.547 ± 0.31.

STDSCVALSMATWF yielded an amyloid nucleation score of 0.188 ± 0.46.

Substance LTSRVQCKNNCFSD displayed an amyloid nucleation score of 2.38 ± 0.55.

With VIGYWGW, the amyloid nucleation score is -0.164 ± 0.4.

FMRMFVIIKHHVEVRRPRFI yielded an amyloid nucleation score of 0.413 ± 0.7.

Consider CDGRW, for which the amyloid nucleation score turned out to be 0.186 ± 0.3.

As to ICWNHTTVGFGMIMVVYYL, the amyloid nucleation score came out at 1.95 ± 0.091.

LSVYA: the amyloid nucleation score was 0.612 ± 0.45.

In turn, STKWLFGKNGVSLYLLSRRR showed an amyloid nucleation score of 2.58 ± 0.13.

For the substance CIRGGSIWLMGHNVREVC, the amyloid nucleation score was found to be 0.401 ± 0.49.

With SLHCLMFVCSFRVSFEDWGE, the amyloid nucleation score was found to be 4.77 ± 0.13.

In turn, FMLVMFYWIYFNYSNVFRD had an amyloid nucleation score of -0.669 ± 0.78.

Take SQMTDYVFTL: the amyloid nucleation score worked out at 0.848 ± 0.85.

Turning to KQCGVKWFMAG, the amyloid nucleation score was 0.437 ± 1.4.

LMLRLRVLPVA had an amyloid nucleation score of -0.234 ± 0.26.

The substance IFSGECHVYVGSRQGWALVI had an amyloid nucleation score of -0.22 ± 0.98.

The substance YSFSRQVSMPSSYSFALF came in with an amyloid nucleation score of -0.742 ± 0.65.

The substance LSTYTMLF yielded an amyloid nucleation score of -0.168 ± 0.28.

As to PSGTGWRLDGSV, the amyloid nucleation score is 0.09 ± 0.38.

Consider TGDRCWLFEGYAFKEHCFAD, for which the amyloid nucleation score is 2.54 ± 0.13.

Consider DIKYECIS, for which the amyloid nucleation score came to 0.204 ± 0.34.

WRRRDRVLQCWL: the amyloid nucleation score result was “inactive”.

The substance MYEMTG displayed an amyloid nucleation score of -0.388 ± 0.19.

Consider VSASLDGPLSVRKGTSKAWD, for which the amyloid nucleation score was -0.043 ± 1.4.

Turning to QLTVYMFFCYC, the amyloid nucleation score stood at 5.378 ± 0.044.

The substance IVSNDKWHMWLNRL showed an amyloid nucleation score of -0.022 ± 0.24.

Take YDKFPTLVMGAKRSGWG: the amyloid nucleation score is -0.761 ± 0.78.

Take FGYVDPRQCDISEHLPLSTV: the amyloid nucleation score was -0.345 ± 0.61.

With TRAHGALYREEVKTWGSRLK, the amyloid nucleation score is -0.998 ± 0.8.

With ETLSFGKHLPRVHAFHHVRC, the amyloid nucleation score was -0.671 ± 1.2.

For the substance ACSCDALRSNLAIIKRESRV, the amyloid nucleation score was -0.766 ± 2.4.

In the case of GYNSVYHLSNVALR, the amyloid nucleation score worked out at 0.928 ± 0.32.

AFRIFPHL: the amyloid nucleation score entry was “inactive”.

As for WELARVDCNWFSHFWHAYMR, the amyloid nucleation score entry is “inactive”.

As for CMSLFRYENVQYLFTRIHSI, the amyloid nucleation score worked out at 1.43 ± 0.34.

As for HTGIIVKEVAQL, the amyloid nucleation score is -0.507 ± 1.9.

For KEGRPQSTLCNVVRGFREQY, the amyloid nucleation score was -0.565 ± 0.7.

NMEWYRTFCSQCYIGRRGTS came in with an amyloid nucleation score of 0.476 ± 0.9.

With YGFVAYSDIVKAFGVIKSTG, the amyloid nucleation score is -0.315 ± 0.31.

In turn, LNLVRLYVTSKCSLDATSVI displayed an amyloid nucleation score of -0.444 ± 1.2.

FINDYMIQYSLHLQVLMST returned an amyloid nucleation score of 3.95 ± 0.074.

As to GREVGYVKLMDRPWPYRPAE, the amyloid nucleation score turned out to be 0.191 ± 0.44.

Turning to SDERKGPGYPSMITSWQGGS, the amyloid nucleation score is -1.31 ± 2.4.

As for CFSQVCDKFMMEMMFSCFKV, the amyloid nucleation score is 0.451 ± 0.24.

HNMGWLFLLAVYLQMFT yielded an amyloid nucleation score of -0.765 ± 1.1.

As to YDLNYKDCSLRSVSSVGLQC, the amyloid nucleation score is 0.099 ± 0.19.

In turn, MDFDRCYSFRGMR registered an amyloid nucleation score of -0.13 ± 0.47.

For NVSSIFITQY, the amyloid nucleation score result is “inactive”.

Consider NYVIGRVIISMYGNDVTRLP, for which the amyloid nucleation score is 4.23 ± 0.095.

The substance WRSSWWWRCCYYSSSSMSRW gave an amyloid nucleation score of 1.12 ± 0.6.

AFTGQCEEKIS: the amyloid nucleation score is -0.226 ± 0.42.

For ENPDW, the amyloid nucleation score worked out at 1.66 ± 0.73.

AASKIIENIGHLC registered an amyloid nucleation score of -0.337 ± 0.52.

As for SHFGNPLKIPVFNRWTQHKA, the amyloid nucleation score is -0.263 ± 0.49.

As to LKFNAP, the amyloid nucleation score is -0.14 ± 1.4.

The substance FKHDYKFEGVCRVNDFLMGF displayed an amyloid nucleation score of -0.115 ± 0.9.

Substance KGWLKTGVYGHVSFVGNIME showed an amyloid nucleation score of 0.467 ± 0.75.

Consider VFEADQNENGTTAPSEAQDR, for which the amyloid nucleation score was -0.088 ± 0.3.

With YYRGCHLYSHHPLRGLLGGV, the amyloid nucleation score result is “inactive”.

VGGQRKVRSDDVSMDVHTAT registered an amyloid nucleation score of 0.924 ± 0.47.

FLNNTGAQSKLFLDVSVRQG gave an amyloid nucleation score of -0.065 ± 0.86.

Turning to FSGCGWYRTVDYGGP, the amyloid nucleation score result is “inactive”.

The substance YNAASKGEINPNAGNVILFV had an amyloid nucleation score of 3.13 ± 0.1.

In turn, LLLVCMHGSFAMYMPLNNRW showed an amyloid nucleation score of 0.922 ± 0.93.

For SMYFSHVSPFVWRSYCFLVC, the amyloid nucleation score result is “inactive”.

Substance QRSCNAVTFVGCQYNFFPTE yielded an amyloid nucleation score of 7.091 ± 0.05.

As for HKCWVDGIVY, the amyloid nucleation score came to 0.577 ± 0.48.

As to QGSYLHLSIKWLAFRSMS, the amyloid nucleation score was 0.19 ± 0.4.

Take YGTGMCHELCIDVTSWVMWM: the amyloid nucleation score is -1.57 ± 0.79.

Consider DLVAVQESWTLYSLVPQLFY, for which the amyloid nucleation score is -0.103 ± 0.4.

TRNMHKCCNTMTTLLSVLGS gave an amyloid nucleation score of -0.186 ± 0.75.

With MFCIDSRAVAGMRDGRINLG, the amyloid nucleation score came to 1.64 ± 0.21.

In turn, AENITGWVVPIVVTLTASAR gave an amyloid nucleation score of -0.163 ± 0.29.

Substance TDLKLWH gave an amyloid nucleation score of 0.136 ± 1.2.

In the case of RHSSYIGMCRT, the amyloid nucleation score amounted to 1.66 ± 0.56.

In turn, YFVGGF showed an amyloid nucleation score of -0.859 ± 0.91.

In the case of MCDVERCRS, the amyloid nucleation score result was “inactive”.

As for MDNCIISRYMFHMLVTSKVY, the amyloid nucleation score worked out at 0.996 ± 0.52.

As for IHLNQ, the amyloid nucleation score stood at 1.15 ± 0.55.

The substance CYPPEVF displayed an amyloid nucleation score of 1.31 ± 0.67.

The substance HVLHNWSDHDRN came in with an amyloid nucleation score of 1.23 ± 0.55.

Substance RLLPYILMTFLHEYVGAGYE registered an amyloid nucleation score of 0.561 ± 0.37.

Substance TRMGEL had an amyloid nucleation score of -0.089 ± 0.76.

Take PLRDKESVLMWLYSYWVTNI: the amyloid nucleation score turned out to be 0.017 ± 0.32.

For the substance TYRTWLYLPLQCAIYLGVSL, the amyloid nucleation score was -0.436 ± 0.64.

Take YGRVTDYCKCCVILRLSYWV: the amyloid nucleation score is -0.993 ± 0.77.
